Target: T1, Flag-PALB2 WT (Partner and Localiser of BRCA2) (UniProt Q86YC2 1-1186)
T1 construct: PALB2 (Partner and Localiser of BRCA2), wild type; printed both as Flag-PALB2 and as PALB2-Flag; also called PALB2-Flag; pDEST-FRT/T0-Flag-PALB2; source: HEK293FT, transiently co-transfected, in lysate
T1 sequence (looked up): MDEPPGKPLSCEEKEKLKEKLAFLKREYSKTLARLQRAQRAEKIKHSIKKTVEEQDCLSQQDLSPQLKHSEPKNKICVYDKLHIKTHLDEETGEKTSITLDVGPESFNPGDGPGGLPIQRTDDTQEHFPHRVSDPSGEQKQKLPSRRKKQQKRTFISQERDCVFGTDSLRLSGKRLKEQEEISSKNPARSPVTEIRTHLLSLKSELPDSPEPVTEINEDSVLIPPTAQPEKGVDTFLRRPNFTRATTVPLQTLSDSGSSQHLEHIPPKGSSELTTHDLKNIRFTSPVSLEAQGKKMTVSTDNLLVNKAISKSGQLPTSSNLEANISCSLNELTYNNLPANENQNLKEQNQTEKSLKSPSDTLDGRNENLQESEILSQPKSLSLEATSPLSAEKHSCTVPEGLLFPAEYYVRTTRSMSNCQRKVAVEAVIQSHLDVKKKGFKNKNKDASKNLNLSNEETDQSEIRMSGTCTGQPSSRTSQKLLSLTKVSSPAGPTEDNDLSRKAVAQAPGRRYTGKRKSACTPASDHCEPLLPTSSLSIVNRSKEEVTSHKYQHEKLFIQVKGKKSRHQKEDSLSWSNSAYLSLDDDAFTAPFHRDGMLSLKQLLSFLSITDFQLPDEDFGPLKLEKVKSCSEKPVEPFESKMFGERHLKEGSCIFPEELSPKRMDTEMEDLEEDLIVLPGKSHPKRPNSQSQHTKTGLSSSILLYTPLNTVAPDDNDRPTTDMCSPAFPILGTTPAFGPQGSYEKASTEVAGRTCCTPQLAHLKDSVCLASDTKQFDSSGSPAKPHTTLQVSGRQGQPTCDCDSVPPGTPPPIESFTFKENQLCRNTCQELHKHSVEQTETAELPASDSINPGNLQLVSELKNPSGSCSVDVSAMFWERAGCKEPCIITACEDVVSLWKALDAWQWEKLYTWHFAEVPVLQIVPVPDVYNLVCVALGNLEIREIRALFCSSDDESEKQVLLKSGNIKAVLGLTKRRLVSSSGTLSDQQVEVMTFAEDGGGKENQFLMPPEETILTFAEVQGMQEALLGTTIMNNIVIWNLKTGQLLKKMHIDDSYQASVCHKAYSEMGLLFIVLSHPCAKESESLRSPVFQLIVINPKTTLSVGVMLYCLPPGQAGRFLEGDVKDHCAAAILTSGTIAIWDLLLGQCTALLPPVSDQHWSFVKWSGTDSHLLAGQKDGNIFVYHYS
Assay: co-IP; HEK293FT co-transfected with BRCA1 WT or variant and Flag-PALB2; 2 mg lysate protein incubated 90 min at 4 °C with Flag antibody coupled to Dynabeads Protein G; non-denaturing elution; BRCA1 in the IP detected by anti-BRCA1 blot, normalised to the anti-Flag signal, % of WT
Conditions: partners not purified

B1: BRCA1 p.Lys503Arg (full-length, mCherry-tagged) (natural protein, human, UniProt P38398 1-1863, looked up)
chain: MDLSALRVEEVQNVINAMQKILECPICLELIKEPVSTKCDHIFCKFCMLKLLNQKKGPSQCPLCKNDITKRSLQESTRFSQLVEELLKIICAFQLDTGLEYANSYNFAKKENNSPEHLKDEVSIIQSMGYRNRAKRLLQSEPENPSLQETSLSVQLSNLGTVRTLRTKQRIQPQKTSVYIELGSDSSEDTVNKATYCSVGDQELLQITPQGTRDEISLDSAKKAACEFSETDVTNTEHHQPSNNDLNTTEKRAAERHPEKYQGSSVSNLHVEPCGTNTHASSLQHENSSLLLTKDRMNVEKAEFCNKSKQPGLARSQHNRWAGSKETCNDRRTPSTEKKVDLNADPLCERKEWNKQKLPCSENPRDTEDVPWITLNSSIQKVNEWFSRSDELLGSDDSHDGESESNAKVADVLDVLNEVDEYSGSSEKIDLLASDPHEALICKSERVHSKSVESNIEDKIFGKTYRKKASLPNLSHVTENLIIGAFVTEPQIIQERPLTNKLRRKRRPTSGLHPEDFIKKADLAVQKTPEMINQGTNQTEQNGQVMNITNSGHENKTKGDSIQNEKNPNPIESLEKESAFKTKAEPISSSISNMELELNIHNSKAPKKNRLRRKSSTRHIHALELVVSRNLSPPNCTELQIDSCSSSEEIKKKKYNQMPVRHSRNLQLMEGKEPATGAKKSNKPNEQTSKRHDSDTFPELKLTNAPGSFTKCSNTSELKEFVNPSLPREEKEEKLETVKVSNNAEDPKDLMLSGERVLQTERSVESSSISLVPGTDYGTQESISLLEVSTLGKAKTEPNKCVSQCAAFENPKGLIHGCSKDNRNDTEGFKYPLGHEVNHSRETSIEMEESELDAQYLQNTFKVSKRQSFAPFSNPGNAEEECATFSAHSGSLKKQSPKVTFECEQKEENQGKNESNIKPVQTVNITAGFPVVGQKDKPVDNAKCSIKGGSRFCLSSQFRGNETGLITPNKHGLLQNPYRIPPLFPIKSFVKTKCKKNLLEENFEEHSMSPEREMGNENIPSTVSTISRNNIRENVFKEASSSNINEVGSSTNEVGSSINEIGSSDENIQAELGRNRGPKLNAMLRLGVLQPEVYKQSLPGSNCKHPEIKKQEYEEVVQTVNTDFSPYLISDNLEQPMGSSHASQVCSETPDDLLDDGEIKEDTSFAENDIKESSAVFSKSVQKGELSRSPSPFTHTHLAQGYRRGAKKLESSEENLSSEDEELPCFQHLLFGKVNNIPSQSTRHSTVATECLSKNTEENLLSLKNSLNDCSNQVILAKASQEHHLSEETKCSASLFSSQCSELEDLTANTNTQDPFLIGSSKQMRHQSESQGVGLSDKELVSDDEERGTGLEENNQEEQSMDSNLGEAASGCESETSVSEDCSGLSSQSDILTTQQRDTMQHNLIKLQQEMAELEAVLEQHGSQPSNSYPSIISDSSALEDLRNPEQSTSEKAVLTSQKSSEYPISQNPEGLSADKFEVSADSSTSKNKEPGVERSSPSKCPSLDDRWYMHSCSGSLQNRNYPSQEELIKVVDVEEQQLEESGPHDLTETSYLPRQDLEGTPYLESGISLFSDDPESDPSEDRAPESARVGNIPSSTSALKVPQLKVAESAQSPAAAHTTDTAGYNAMEESVSREKPELTASTERVNKRMSMVVSGLTPEEFMLVYKFARKHHITLTNLITEETTHVVMKTDAEFVCERTLKYFLGIAGGKWVVSYFWVTQSIKERKMLNEHDFEVRGDVVNGRNHQGPKRARESQDRKIFRGLEICCYGPFTNMPTDQLEWMVQLCGASVVKELSSFTLGTGVHPIVVVQPDAWTEDNGFHAIGQMCEAPVVTREWVLDSVALYQCQELDTYLIPQIPHSHY
notes: BRCA1, human, full-length, rare germline missense variant introduced in the WT plasmid; Made by site-directed mutagenesis of the plasmid of m1; also called c.1508A > G; source: HEK293FT, transiently co-transfected, in lysate
Co-IP PALB2 (% of WT): 18 % of WT

B2: BRCA1 p.Met1411Thr (full-length, mCherry-tagged; pathogenic control variant, coiled-coil domain) (natural protein, human, UniProt P38398 1-1863, looked up)
chain: MDLSALRVEEVQNVINAMQKILECPICLELIKEPVSTKCDHIFCKFCMLKLLNQKKGPSQCPLCKNDITKRSLQESTRFSQLVEELLKIICAFQLDTGLEYANSYNFAKKENNSPEHLKDEVSIIQSMGYRNRAKRLLQSEPENPSLQETSLSVQLSNLGTVRTLRTKQRIQPQKTSVYIELGSDSSEDTVNKATYCSVGDQELLQITPQGTRDEISLDSAKKAACEFSETDVTNTEHHQPSNNDLNTTEKRAAERHPEKYQGSSVSNLHVEPCGTNTHASSLQHENSSLLLTKDRMNVEKAEFCNKSKQPGLARSQHNRWAGSKETCNDRRTPSTEKKVDLNADPLCERKEWNKQKLPCSENPRDTEDVPWITLNSSIQKVNEWFSRSDELLGSDDSHDGESESNAKVADVLDVLNEVDEYSGSSEKIDLLASDPHEALICKSERVHSKSVESNIEDKIFGKTYRKKASLPNLSHVTENLIIGAFVTEPQIIQERPLTNKLKRKRRPTSGLHPEDFIKKADLAVQKTPEMINQGTNQTEQNGQVMNITNSGHENKTKGDSIQNEKNPNPIESLEKESAFKTKAEPISSSISNMELELNIHNSKAPKKNRLRRKSSTRHIHALELVVSRNLSPPNCTELQIDSCSSSEEIKKKKYNQMPVRHSRNLQLMEGKEPATGAKKSNKPNEQTSKRHDSDTFPELKLTNAPGSFTKCSNTSELKEFVNPSLPREEKEEKLETVKVSNNAEDPKDLMLSGERVLQTERSVESSSISLVPGTDYGTQESISLLEVSTLGKAKTEPNKCVSQCAAFENPKGLIHGCSKDNRNDTEGFKYPLGHEVNHSRETSIEMEESELDAQYLQNTFKVSKRQSFAPFSNPGNAEEECATFSAHSGSLKKQSPKVTFECEQKEENQGKNESNIKPVQTVNITAGFPVVGQKDKPVDNAKCSIKGGSRFCLSSQFRGNETGLITPNKHGLLQNPYRIPPLFPIKSFVKTKCKKNLLEENFEEHSMSPEREMGNENIPSTVSTISRNNIRENVFKEASSSNINEVGSSTNEVGSSINEIGSSDENIQAELGRNRGPKLNAMLRLGVLQPEVYKQSLPGSNCKHPEIKKQEYEEVVQTVNTDFSPYLISDNLEQPMGSSHASQVCSETPDDLLDDGEIKEDTSFAENDIKESSAVFSKSVQKGELSRSPSPFTHTHLAQGYRRGAKKLESSEENLSSEDEELPCFQHLLFGKVNNIPSQSTRHSTVATECLSKNTEENLLSLKNSLNDCSNQVILAKASQEHHLSEETKCSASLFSSQCSELEDLTANTNTQDPFLIGSSKQMRHQSESQGVGLSDKELVSDDEERGTGLEENNQEEQSMDSNLGEAASGCESETSVSEDCSGLSSQSDILTTQQRDTMQHNLIKLQQETAELEAVLEQHGSQPSNSYPSIISDSSALEDLRNPEQSTSEKAVLTSQKSSEYPISQNPEGLSADKFEVSADSSTSKNKEPGVERSSPSKCPSLDDRWYMHSCSGSLQNRNYPSQEELIKVVDVEEQQLEESGPHDLTETSYLPRQDLEGTPYLESGISLFSDDPESDPSEDRAPESARVGNIPSSTSALKVPQLKVAESAQSPAAAHTTDTAGYNAMEESVSREKPELTASTERVNKRMSMVVSGLTPEEFMLVYKFARKHHITLTNLITEETTHVVMKTDAEFVCERTLKYFLGIAGGKWVVSYFWVTQSIKERKMLNEHDFEVRGDVVNGRNHQGPKRARESQDRKIFRGLEICCYGPFTNMPTDQLEWMVQLCGASVVKELSSFTLGTGVHPIVVVQPDAWTEDNGFHAIGQMCEAPVVTREWVLDSVALYQCQELDTYLIPQIPHSHY
notes: BRCA1, human, full-length, pathogenic control missense variant in the coiled-coil domain, introduced in the WT plasmid; Made by site-directed mutagenesis of the plasmid of m1; also called c.4232T > C; source: HEK293FT, transiently co-transfected, in lysate
Co-IP PALB2 (% of WT): 11 % of WT

— PMC9957003, “Functional Analyses of Rare Germline Missense BRCA1 Variants Located within and outside Protein Domains with Known Functions” (Genes, 2023)
